Values quoted from earlier work, collected in paper PMC3792554.

Target: IL-18 (Homo sapiens) (UniProt Q14116)
Sequence (Q14116 37-193): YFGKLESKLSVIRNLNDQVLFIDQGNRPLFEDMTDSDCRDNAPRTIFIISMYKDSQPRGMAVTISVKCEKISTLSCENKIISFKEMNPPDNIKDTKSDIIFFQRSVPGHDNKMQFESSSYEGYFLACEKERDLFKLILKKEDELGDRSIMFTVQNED

Sequence of IL-18BP (O95998 31-194): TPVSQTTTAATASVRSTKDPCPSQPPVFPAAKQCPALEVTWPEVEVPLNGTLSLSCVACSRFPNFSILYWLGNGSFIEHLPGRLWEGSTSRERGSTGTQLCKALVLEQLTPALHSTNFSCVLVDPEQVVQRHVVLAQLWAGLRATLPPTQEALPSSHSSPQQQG

## IL-18BP (from UniProt O95998)
  Kd: 0.4 nM
